Legend:
[1] = test system: NCI-H292 cells expressing human HGF, xenograft; assay: Tumor efficacy study with bispecific molecules of variable affinity, H292-HGF xenograft; assay type: in vivo, mice; conditions: 25 mg/kg three times per week, FIG. 8
Experimental: One week after implantation, mice were stratified into groups with equivalent tumor volumes (mean tumor volume=77.9+/−1.7 mm^3). Mice were dosed three times per week with the bispecific molecules and tumor volumes were recorded twice weekly.

[2] = Differential scanning calorimetry in PBS (thermal stability); assay type: physicochemical; conditions: DSC in PBS, c-Met-binding FN3 domains
c-Met-Fc fusion protein = target: T1, c-Met-Fc fusion protein (Homo sapiens, UniProt P08581); assay: c-Met-Fc affinity by surface plasmon resonance (ProteOn); assay type: binding; conditions: serine mutants of A3 in the context of ECB15, SPR
T1 construct: recombinant EGFR and/or c-Met extracellular domain was further analyzed by surface Plasmon resonance
T1 sequence (P08581 25-932 limits assumed): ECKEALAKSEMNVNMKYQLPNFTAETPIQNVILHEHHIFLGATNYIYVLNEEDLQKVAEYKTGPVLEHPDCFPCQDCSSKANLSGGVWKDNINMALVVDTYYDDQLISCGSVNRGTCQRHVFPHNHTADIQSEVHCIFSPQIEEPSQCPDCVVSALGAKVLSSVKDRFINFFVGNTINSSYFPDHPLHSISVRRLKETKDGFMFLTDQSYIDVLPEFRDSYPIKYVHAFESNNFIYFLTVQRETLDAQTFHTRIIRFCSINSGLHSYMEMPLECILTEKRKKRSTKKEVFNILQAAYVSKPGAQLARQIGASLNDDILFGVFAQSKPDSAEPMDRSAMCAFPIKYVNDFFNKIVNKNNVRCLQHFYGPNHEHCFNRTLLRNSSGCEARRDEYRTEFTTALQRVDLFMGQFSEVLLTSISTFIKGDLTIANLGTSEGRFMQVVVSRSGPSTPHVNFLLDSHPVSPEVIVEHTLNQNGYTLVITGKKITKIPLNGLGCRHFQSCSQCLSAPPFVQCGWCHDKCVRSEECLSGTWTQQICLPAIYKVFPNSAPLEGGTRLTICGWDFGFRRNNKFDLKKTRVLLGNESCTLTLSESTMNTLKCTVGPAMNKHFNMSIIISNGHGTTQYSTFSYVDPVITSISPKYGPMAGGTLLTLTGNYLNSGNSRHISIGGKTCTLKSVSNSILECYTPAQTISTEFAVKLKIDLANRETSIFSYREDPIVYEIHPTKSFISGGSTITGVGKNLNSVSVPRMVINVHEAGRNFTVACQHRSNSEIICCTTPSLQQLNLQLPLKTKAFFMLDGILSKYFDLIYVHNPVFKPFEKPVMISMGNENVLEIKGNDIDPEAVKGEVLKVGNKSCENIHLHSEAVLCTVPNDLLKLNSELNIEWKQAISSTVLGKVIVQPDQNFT

Molecule	Thermal Stability (Tm) [2] [C.]	further results
ECB39: bispecific linked to albumin binding domain, SEQ ID NO: 121; medium EGFR / high c-Met affinity (protein, Bispecific EGFR/c-Met binding molecule) MLPAPKNLVVSEVTEDSARLSWADPHGFYDSFLIQYQESEKVGEAIVLTVPGSERSYDLTGLKPGTEYTVSIYGVHNVYKDTNMRGLPLSAIFTTAPAPAPAPAPLPAPKNLVVSRVTEDSARLSWTAPDAAFDSFWIRYFEFLGSGEAIVLTVPGSERSYDLTGLKPGTEYVVNIMGVKGGKISPPLSAIFTTAPAPAPAPAPLAEAKVLANRELDKYGVSDYYKNLINNAKTVEGVKALLDEILAALP		tumor growth inhibition (in words) [1]: showed the most efficacy
ECB18: bispecific linked to albumin binding domain, SEQ ID NO: 118; high EGFR / medium c-Met affinity (protein, Bispecific EGFR/c-Met binding molecule) MLPAPKNLVVSEVTEDSARLSWDDPWAFYESFLIQYQESEKVGEAIVLTVPGSERSYDLTGLKPGTEYTVSIYGVHNVYKDTNMRGLPLSAIFTTAPAPAPAPAPLPAPKNLVVSRVTEDSARLSWTAPDAAFDSFWIRYDEVVVGGEAIVLTVPGSERSYDLTGLKPGTEYYVNILGVKGGSISVPLSAIFTTAPAPAPAPAPLAEAKVLANRELDKYGVSDYYKNLINNAKTVEGVKALLDEILAALP		tumor growth inhibition (in words) [1]: delay in tumor growth
P114AR7P92-G8: c-Met-binding FN3 domain, SEQ ID NO: 36 (protein, c-Met binding FN3 domain) LPAPKNLVVSRVTEDSARLSWTAPDAAFDSFVIRYFEFLGSGEAIVLTVPGSERSYDLTGLKPGTEYVVQILGVKGGYISIPLSAIFTT	90.9	
A3 V68S: serine mutant of c-Met domain A3 in the context of ECB15, SEQ ID NO: 215 (protein, c-Met binding FN3 domain) LPAPKNLVVSRVTEDSARLSWTAPDAAFDSFWIRYFEFLGSGEAIVLTVPGSERSYDLTGLKPGTEYSVNIMGVKGGKISPPLSAIFTT		ka (c-Met-Fc fusion protein): 329000 M⁻¹ s⁻¹; kd (c-Met-Fc fusion protein): 0.0012 s⁻¹
P114AR7P93-G8: c-Met-binding FN3 domain, SEQ ID NO: 39 (protein, c-Met binding FN3 domain) LPAPKNLVVSRVTEDSARLSWTAPDAAFDSFWIRYFEFLGSGEAIVLTVPGSERSYDLTDLKPGTEYGVTINGVKGGRVSTPLSAIFTT	76.8	
P114AR7P95-F10: c-Met-binding FN3 domain, SEQ ID NO: 47 (protein, c-Met binding FN3 domain) LPAPKNLVVSRVTEDSARLSWTAPDAAFDSFWIRYFEFTTAGEAIVLTVPGSERSYDLTGLKPGTEYVVNIMGVKGGSISPPLSAIFTT	85.2	
A3 L39S: serine mutant of c-Met domain A3 in the context of ECB15, SEQ ID NO: 214 (protein, c-Met binding FN3 domain) LPAPKNLVVSRVTEDSARLSWTAPDAAFDSFWIRYFEFSGSGEAIVLTVPGSERSYDLTGLKPGTEYVVNIMGVKGGKISPPLSAIFTT		ka (c-Met-Fc fusion protein): 475000 M⁻¹ s⁻¹; kd (c-Met-Fc fusion protein): 0.00127 s⁻¹
P114AR7P95-H8: c-Met-binding FN3 domain, SEQ ID NO: 49 (protein, c-Met binding FN3 domain) LPAPKNLVVSRVTEDSARLSWTAPDAAFDSFWIRYFEFVSKGEAIVLTVPGSERSYDLTGLKPGTEYVVNIMGVKGGSISPPLSAIFTT	83	
P114AR7P92-F6: c-Met-binding FN3 domain, SEQ ID NO: 35 (protein, c-Met binding FN3 domain) LPAPKNLVVSRVTEDSARLSWTAPDAAFDSFWIRYFEFLGSGEAIVLTVPGSERSYDLTGLKPGTEYVVNILGVKGGGLSVPLSAIFTT	76.8	
A3 F38S: serine mutant of c-Met domain A3 in the context of ECB15, SEQ ID NO: 222 (protein, c-Met binding FN3 domain) LPAPKNLVVSRVTEDSARLSWTAPDAAFDSFWIRYFESLGSGEAIVLTVPGSERSYDLTGLKPGTEYVVNIMGVKGGKISPPLSAIFTT		ka (c-Met-Fc fusion protein): 45100 M⁻¹ s⁻¹; kd (c-Met-Fc fusion protein): 0.0323 s⁻¹
P114AR7P95-D4: c-Met-binding FN3 domain, SEQ ID NO: 45 (protein, c-Met binding FN3 domain) LPAPKNLVVSRVTEDSARLSWTAPDAAFDSFWIRYFEFLGSGEAIVLTVPGSERSYDLTGLKPGTEYVVQILGVKGGYISIPLSAIFTT	85.3	
P114AR7P95-G7: c-Met-binding FN3 domain, SEQ ID NO: 48 (protein, c-Met binding FN3 domain) LPAPKNLVVSRVTEDSARLSWTAPDAAFDSFWIRYFELLSTGEAIVLTVPGSERSYDLTGLKPGTEYVVNIMGVKGGSISPPLSAIFTT	87.2	
A3 K78S: serine mutant of c-Met domain A3 in the context of ECB15, SEQ ID NO: 212 (protein, c-Met binding FN3 domain) LPAPKNLVVSRVTEDSARLSWTAPDAAFDSFWIRYFEFLGSGEAIVLTVPGSERSYDLTGLKPGTEYVVNIMGVKGGSISPPLSAIFTT		ka (c-Met-Fc fusion protein): 440000 M⁻¹ s⁻¹; kd (c-Met-Fc fusion protein): 0.00015 s⁻¹
P114AR7P94-E5: c-Met-binding FN3 domain, SEQ ID NO: 42 (protein, c-Met binding FN3 domain) LPAPKNLVVSRVTEDSARLSWTAPDAAFDSFWIRYFEFLGSGEAIVLTVPGSERSYDLTGLKPGTEYAVNIMGVKGGRVSVPLSAIFTT	80	
P114AR7P92-H5: c-Met-binding FN3 domain, SEQ ID NO: 37 (protein, c-Met binding FN3 domain) LPAPKNLVVSRVTEDSARLSWTAPDAAFDSFWIRYLEFLLGGEAIVLTVPGSERSYDLTGLKPGTEYVVQIMGVKGGTVSPPLSAIFTT	87	
A3 G40S: serine mutant of c-Met domain A3 in the context of ECB15, SEQ ID NO: 213 (protein, c-Met binding FN3 domain) LPAPKNLVVSRVTEDSARLSWTAPDAAFDSFWIRYFEFLSSGEAIVLTVPGSERSYDLTGLKPGTEYVVNIMGVKGGKISPPLSAIFTT		ka (c-Met-Fc fusion protein): 185000 M⁻¹ s⁻¹; kd (c-Met-Fc fusion protein): 0.00032 s⁻¹
P114AR5P74-A5: c-Met-binding FN3 domain, SEQ ID NO: 32 (protein, c-Met binding FN3 domain) LPAPKNLVVSRVTEDSARLSWTAPDAAFDSFWIRYDEVVVGGEAIVLTVPGSERSYDLTGLKPGTEYYVNILGVKGGSISVPLSAIFTT	74.1	
P114AR7P94-A3: c-Met-binding FN3 domain, SEQ ID NO: 41 (protein, c-Met binding FN3 domain) LPAPKNLVVSRVTEDSARLSWTAPDAAFDSFWIRYFEFLGSGEAIVLTVPGSERSYDLTGLKPGTEYVVNIMGVKGGKISPPLSAIFTT	86.2	
P114AR7P93-H9: c-Met-binding FN3 domain, SEQ ID NO: 40 (protein, c-Met binding FN3 domain) LPAPKNLVVSRVTEDSARLSWTAPDAAFDSFWIRYFEFLGSGEAIVLTVPGSERSYDLTGLKPGTEYVVQIIGVKGGHISLPLSAIFTT	88.2	
